# Publication PMC4287557
# Tests used:
# [1] = target: JRFL SOSIP trimer (HIV-1 subtype B, truncated at residue 663), negatively selected (HIV-1 subtype B strain JRFL); experiment: negative-stain EM; negatively selected SOSIP trimers incubated with a ten molar excess of Fab or four-domain sCD4 at RT for 1 hour; 2% uranyl formate; 2D class averages (occupancy) and 3D reconstructions
# [2] = target: 16055 SOSIP trimer (HIV-1 subtype C, truncated at residue 663), negatively selected (HIV-1 subtype C strain 16055); experiment: as above
# [3] = target: JRFL SOSIP trimer (HIV-1 subtype B, truncated at residue 663), negatively selected (HIV-1 subtype B strain JRFL)
# Chain of PGT151 Fab (VH): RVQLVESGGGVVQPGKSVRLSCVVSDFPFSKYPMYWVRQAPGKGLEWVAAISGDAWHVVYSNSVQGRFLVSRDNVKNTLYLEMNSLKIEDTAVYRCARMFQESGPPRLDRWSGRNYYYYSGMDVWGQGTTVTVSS
# Chain of PGT151 Fab (VL): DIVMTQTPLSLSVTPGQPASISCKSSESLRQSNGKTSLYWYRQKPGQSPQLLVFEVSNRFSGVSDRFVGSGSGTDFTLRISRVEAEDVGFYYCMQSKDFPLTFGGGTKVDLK
substance,measurement,setting,value
PGT151 Fab,percent of trimers with one Fab bound,[1],28%
same,percent of trimers with three Fabs bound,[1],11%
same,percent of trimers with two Fabs bound,[1],36%
same,percent of trimers with one Fab bound,[2],34%
same,percent of trimers with three Fabs bound,[2],0%
same,percent of trimers with two Fabs bound,[2],20%
same,"increase of the melting temperature (Tm) of the JRFL SOSIP-Fab complex over the trimer alone, DSF",[3],2.1 °C
